Source: US20040082496

How the values were obtained:
[1] = test system: T1, Mca-Tyr-Val-Ala-Asp-Ala-Pro-(Dnp)Lys-OH (Caspase 1 substrate, Bachem M-2195); test: fluorogenic substrate cleavage by purified ACE-2, microtitre plate
T1 sequence: YVADAPK

[2] = test system: T2, Mca-Ala-Pro-(Dnp)Lys-OH (AnaSpec MIPH1); test: as above
T2 sequence: APK

Neurotensin (1-13) = Neurotensin (1-13) (UniProt P30990)
[3] = test system: T1, Mca-Tyr-Val-Ala-Asp-Ala-Pro-(Dnp)Lys-OH (Caspase 1 substrate, Bachem M-2195)
[4] = test system: T2, Mca-Ala-Pro-(Dnp)Lys-OH (AnaSpec MIPH1)

Substance: secreted ACE-2 purified from CHO K1 cell supernatant (expression vector pMD37)
- Km [1]: 130 µM
- Km [2]: 340 µM
- hydrolysis followed by mass spectroscopy (Neurotensin (1-13)): ACE-2 hydrolyzes Neurotensin (1-13) to Neurotensin (1-12)
- hydrolysis followed by mass spectroscopy ((Des-Arg^9) Bradykinin): ACE-2 can hydrolyze des-Arg bradykinin
- hydrolysis followed by mass spectroscopy [3]: ACE-2 hydrolysed this substance between the P1 proline and P1′ (DNP)Lys
- kcat/Km [3]: 42000 M⁻¹ s⁻¹
- hydrolysis followed by mass spectroscopy (Angiotensin I(1-10)): When treated with ACE-2, mass spectroscopy data shows that Angiotensin I (1-10) is converted to Angiotensin I (1-9)
- kcat/Km [4]: 230000 M⁻¹ s⁻¹
